These sequences were tested on Escherichia coli TOP10 (assay: shrunken log2 fold change of peptide-encoding DNA abundance (4.5 h post-induction vs induction); higher = less antimicrobial activity (less host growth inhibition)). Settings: time post-induction: 4.5 h; library: site-saturation at positions 5, 18, 19, 20.
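Further: peptides expressed intracellularly from a pBAD plasmid library in pooled LB shake-flask culture, induced with 0.3% L-arabinose, DNA abundance read by NGS, three biological replicates, DESeq2 with apeglm shrinkage.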

| Sequence | shrunken log2 fold change |
| --- | --- |
| RRIRFRPPRLPRPRPRPMFAPRP | 0.0307 |
| RRIRTRPPRLPRPRPRPGARPRP | 0.212 |
| RRIRIRPPRLPRPRPRPWQGPRP | -0.125 |
| RRIRSRPPRLPRPRPRPTYCPRP | -0.112 |
| RRIRDRPPRLPRPRPRPPIIPRP | -0.0464 |
| RRIRERPPRLPRPRPRPNQEPRP | 0.0174 |
| RRIRRRPPRLPRPRPRPMPRPRP | 0.811 |
| RRIRSRPPRLPRPRPRPYWIPRP | -0.267 |
| RRIRLRPPRLPRPRPRPGYAPRP | 0.119 |
| RRIRFRPPRLPRPRPRPERVPRP | 0.094 |
| RRIRQRPPRLPRPRPRPPHVPRP | 0.15 |
| RRIRPRPPRLPRPRPRPYGQPRP | -0.169 |
| RRIRVRPPRLPRPRPRPIKPPRP | -0.15 |
| RRIRARPPRLPRPRPRPHDIPRP | -0.08 |
| RRIRGRPPRLPRPRPRPMWYPRP | 0.293 |
| RRIRKRPPRLPRPRPRPRPEPRP | 0.162 |
| RRIRSRPPRLPRPRPRPYCHPRP | -0.532 |
| RRIRDRPPRLPRPRPRPSHCPRP | -0.29 |
| RRIRDRPPRLPRPRPRPCQSPRP | -0.121 |
| RRIRFRPPRLPRPRPRPRDGPRP | 1.36 |
| RRIRFRPPRLPRPRPRPCYHPRP | -0.859 |
| RRIRPRPPRLPRPRPRPEEQPRP | 0.00406 |
| RRIRPRPPRLPRPRPRPHVGPRP | -0.0279 |
| RRIRWRPPRLPRPRPRPCCRPRP | 0.174 |
| RRIRQRPPRLPRPRPRPDIKPRP | -0.0227 |

| Sequence | shrunken log2 fold change |
| --- | --- |
| RRIRDRPPRLPRPRPRPEDLPRP | 0.902 |
| RRIRARPPRLPRPRPRPRKSPRP | 0.778 |
| RRIRCRPPRLPRPRPRPKWSPRP | 0.0876 |
| RRIRSRPPRLPRPRPRPQHAPRP | -0.153 |
| RRIRQRPPRLPRPRPRPTIKPRP | -0.374 |
| RRIRVRPPRLPRPRPRPWEHPRP | 0.0927 |
| RRIRERPPRLPRPRPRPLMQPRP | 0.0114 |
| RRIRNRPPRLPRPRPRPCGTPRP | -0.139 |
| RRIRPRPPRLPRPRPRPPPGPRP | 0.816 |
| RRIRSRPPRLPRPRPRPMNPPRP | -0.0648 |
| RRIRERPPRLPRPRPRPHKQPRP | -0.0572 |
| RRIRRRPPRLPRPRPRPSKHPRP | -0.196 |
| RRIRSRPPRLPRPRPRPPVWPRP | 0.48 |
| RRIRERPPRLPRPRPRPNRQPRP | 0.0895 |
| RRIRMRPPRLPRPRPRPENAPRP | 0.0504 |
| RRIRCRPPRLPRPRPRPYKRPRP | -0.909 |
| RRIRFRPPRLPRPRPRPERWPRP | 0.462 |
| RRIRHRPPRLPRPRPRPSPMPRP | -0.418 |
| RRIRMRPPRLPRPRPRPYTFPRP | -0.0434 |
| RRIRHRPPRLPRPRPRPPSEPRP | -0.0921 |
| RRIRTRPPRLPRPRPRPAWWPRP | 0.615 |
| RRIRRRPPRLPRPRPRPRAFPRP | 0.605 |
| RRIRTRPPRLPRPRPRPMAPPRP | 0.294 |
| RRIRCRPPRLPRPRPRPTRLPRP | 0.558 |
| RRIRRRPPRLPRPRPRPNYLPRP | 0.305 |

| Sequence | shrunken log2 fold change |
| --- | --- |
| RRIRCRPPRLPRPRPRPTHGPRP | 0.000601 |
| RRIRRRPPRLPRPRPRPAERPRP | 0.606 |
| RRIRRRPPRLPRPRPRPTMNPRP | -0.0748 |
| RRIRTRPPRLPRPRPRPFCRPRP | -0.0976 |
| RRIRWRPPRLPRPRPRPMGPPRP | 0.041 |
| RRIRDRPPRLPRPRPRPHDDPRP | 0.014 |
| RRIRPRPPRLPRPRPRPNAQPRP | 0.0626 |
| RRIRRRPPRLPRPRPRPFQRPRP | 0.608 |
| RRIRSRPPRLPRPRPRPIRSPRP | 0.0127 |
| RRIRMRPPRLPRPRPRPMKYPRP | 0.0979 |
| RRIRLRPPRLPRPRPRPFSKPRP | -0.456 |
| RRIRSRPPRLPRPRPRPTDPPRP | -0.000503 |
| RRIRDRPPRLPRPRPRPPTHPRP | 0.21 |
| RRIRMRPPRLPRPRPRPEYLPRP | -0.082 |
| RRIRGRPPRLPRPRPRPYGIPRP | -0.165 |
| RRIRGRPPRLPRPRPRPPNQPRP | 0.535 |
| RRIRRRPPRLPRPRPRPAAHPRP | 0.361 |
| RRIRTRPPRLPRPRPRPHCGPRP | -0.0402 |
| RRIRCRPPRLPRPRPRPMYCPRP | -1.66 |
| RRIRNRPPRLPRPRPRPRDEPRP | -0.0923 |
| RRIRKRPPRLPRPRPRPGNYPRP | -0.113 |
| RRIRCRPPRLPRPRPRPSLWPRP | -0.0313 |
| RRIRPRPPRLPRPRPRPAYYPRP | -0.0697 |
| RRIRYRPPRLPRPRPRPNKLPRP | -0.987 |
| RRIRSRPPRLPRPRPRPCPPPRP | -0.244 |

| Sequence | shrunken log2 fold change |
| --- | --- |
| RRIRGRPPRLPRPRPRPWHGPRP | -0.163 |
| RRIRYRPPRLPRPRPRPKTNPRP | -0.516 |
| RRIRLRPPRLPRPRPRPCWYPRP | -0.176 |
| RRIRLRPPRLPRPRPRPANYPRP | -0.032 |
| RRIRMRPPRLPRPRPRPFWVPRP | -0.0112 |
| RRIRIRPPRLPRPRPRPRTVPRP | -0.197 |
| RRIRNRPPRLPRPRPRPMLNPRP | -0.21 |
| RRIRHRPPRLPRPRPRPRDEPRP | -0.0872 |
| RRIRKRPPRLPRPRPRPNTMPRP | -0.209 |
| RRIRWRPPRLPRPRPRPKYKPRP | -0.558 |
| RRIRHRPPRLPRPRPRPHYKPRP | -0.973 |
| RRIRTRPPRLPRPRPRPTFTPRP | 0.00867 |
| RRIRFRPPRLPRPRPRPASGPRP | 0.206 |
| RRIRSRPPRLPRPRPRPYIRPRP | -0.0533 |
| RRIRYRPPRLPRPRPRPIRYPRP | -0.00146 |
| RRIRPRPPRLPRPRPRPMKFPRP | -0.248 |
| RRIRMRPPRLPRPRPRPWTRPRP | -0.00172 |
| RRIRIRPPRLPRPRPRPDLQPRP | -0.0567 |
| RRIRSRPPRLPRPRPRPNPDPRP | -0.123 |
| RRIRSRPPRLPRPRPRPESCPRP | 0.181 |
| RRIRWRPPRLPRPRPRPSWCPRP | -0.0416 |
| RRIRGRPPRLPRPRPRPMAFPRP | 0.572 |
| RRIRHRPPRLPRPRPRPENKPRP | -0.639 |
| RRIRQRPPRLPRPRPRPVCGPRP | 0.205 |
| RRIRDRPPRLPRPRPRPAHPPRP | -0.203 |

| Sequence | shrunken log2 fold change |
| --- | --- |
| RRIRQRPPRLPRPRPRPPEFPRP | 0.0335 |
| RRIRVRPPRLPRPRPRPGTNPRP | -0.254 |
| RRIRSRPPRLPRPRPRPADLPRP | 0.274 |
| RRIRGRPPRLPRPRPRPAYEPRP | 0.457 |
| RRIRDRPPRLPRPRPRPYGIPRP | -0.00973 |
| RRIRWRPPRLPRPRPRPHGPPRP | 0.0026 |
| RRIRYRPPRLPRPRPRPVRMPRP | -0.246 |
| RRIRIRPPRLPRPRPRPDVYPRP | -0.571 |
| RRIRDRPPRLPRPRPRPQWNPRP | -0.37 |
| RRIRSRPPRLPRPRPRPWDWPRP | 0.676 |
| RRIRTRPPRLPRPRPRPHIGPRP | -0.156 |
| RRIRFRPPRLPRPRPRPCKHPRP | -0.0872 |
| RRIRCRPPRLPRPRPRPQTNPRP | -0.374 |
| RRIRNRPPRLPRPRPRPNHKPRP | -0.688 |
| RRIRNRPPRLPRPRPRPFMHPRP | -0.142 |
| RRIRCRPPRLPRPRPRPSSRPRP | -0.459 |
| RRIRYRPPRLPRPRPRPSFSPRP | -0.626 |
| RRIRLRPPRLPRPRPRPHQKPRP | -0.0932 |
| RRIRQRPPRLPRPRPRPWPQPRP | -0.0188 |
| RRIRGRPPRLPRPRPRPYAKPRP | -0.0213 |
| RRIRERPPRLPRPRPRPTFEPRP | 0.144 |
| RRIRCRPPRLPRPRPRPTGQPRP | 0.123 |
| RRIRTRPPRLPRPRPRPCTEPRP | -0.237 |
| RRIRIRPPRLPRPRPRPYDAPRP | -1.48 |
| RRIRRRPPRLPRPRPRPSMCPRP | 0.008 |

| Sequence | shrunken log2 fold change |
| --- | --- |
| RRIRRRPPRLPRPRPRPSIPPRP | -0.0753 |
| RRIRLRPPRLPRPRPRPTTYPRP | -0.182 |
| RRIRARPPRLPRPRPRPVWNPRP | 0.0865 |
| RRIRWRPPRLPRPRPRPIVHPRP | -0.175 |
| RRIRDRPPRLPRPRPRPHDYPRP | -0.0787 |
| RRIRARPPRLPRPRPRPDRDPRP | -0.0499 |
| RRIRRRPPRLPRPRPRPLFKPRP | -0.00471 |
| RRIRSRPPRLPRPRPRPMFNPRP | -0.258 |
| RRIRGRPPRLPRPRPRPEQYPRP | -0.183 |
| RRIRHRPPRLPRPRPRPANMPRP | -0.126 |
| RRIRCRPPRLPRPRPRPFNMPRP | -0.052 |
| RRIRLRPPRLPRPRPRPAVMPRP | 0.113 |
| RRIRQRPPRLPRPRPRPNYKPRP | -0.545 |
| RRIRMRPPRLPRPRPRPLSLPRP | 0.0457 |
| RRIRLRPPRLPRPRPRPYQDPRP | -0.106 |
| RRIRGRPPRLPRPRPRPRYHPRP | -0.0711 |
| RRIRGRPPRLPRPRPRPCTPPRP | 0.337 |
| RRIRQRPPRLPRPRPRPLAFPRP | -0.232 |
| RRIRHRPPRLPRPRPRPKTGPRP | -0.0854 |
| RRIRNRPPRLPRPRPRPIPRPRP | 0.0496 |
| RRIRTRPPRLPRPRPRPCNTPRP | -0.21 |
| RRIRNRPPRLPRPRPRPCFTPRP | -0.733 |
| RRIRQRPPRLPRPRPRPRTHPRP | 0.167 |
| RRIRPRPPRLPRPRPRPALWPRP | 0.612 |
| RRIRTRPPRLPRPRPRPATLPRP | -0.197 |
